{"source": "paper PMC9897468", "key": {"[1]": {"target": "microtubules (MTs)", "experiment": "TIRF-M dwell time of diffusing molecules on microtubules"}, "[2]": {"target": "microtubules (MTs)", "experiment": "TIRF-M dwell time on microtubules with EB1"}, "[3]": {"target": "Alexa-647-labeled KIF5AA (mouse) (UniProt P33175)", "sequence (P33175 whole entry)": "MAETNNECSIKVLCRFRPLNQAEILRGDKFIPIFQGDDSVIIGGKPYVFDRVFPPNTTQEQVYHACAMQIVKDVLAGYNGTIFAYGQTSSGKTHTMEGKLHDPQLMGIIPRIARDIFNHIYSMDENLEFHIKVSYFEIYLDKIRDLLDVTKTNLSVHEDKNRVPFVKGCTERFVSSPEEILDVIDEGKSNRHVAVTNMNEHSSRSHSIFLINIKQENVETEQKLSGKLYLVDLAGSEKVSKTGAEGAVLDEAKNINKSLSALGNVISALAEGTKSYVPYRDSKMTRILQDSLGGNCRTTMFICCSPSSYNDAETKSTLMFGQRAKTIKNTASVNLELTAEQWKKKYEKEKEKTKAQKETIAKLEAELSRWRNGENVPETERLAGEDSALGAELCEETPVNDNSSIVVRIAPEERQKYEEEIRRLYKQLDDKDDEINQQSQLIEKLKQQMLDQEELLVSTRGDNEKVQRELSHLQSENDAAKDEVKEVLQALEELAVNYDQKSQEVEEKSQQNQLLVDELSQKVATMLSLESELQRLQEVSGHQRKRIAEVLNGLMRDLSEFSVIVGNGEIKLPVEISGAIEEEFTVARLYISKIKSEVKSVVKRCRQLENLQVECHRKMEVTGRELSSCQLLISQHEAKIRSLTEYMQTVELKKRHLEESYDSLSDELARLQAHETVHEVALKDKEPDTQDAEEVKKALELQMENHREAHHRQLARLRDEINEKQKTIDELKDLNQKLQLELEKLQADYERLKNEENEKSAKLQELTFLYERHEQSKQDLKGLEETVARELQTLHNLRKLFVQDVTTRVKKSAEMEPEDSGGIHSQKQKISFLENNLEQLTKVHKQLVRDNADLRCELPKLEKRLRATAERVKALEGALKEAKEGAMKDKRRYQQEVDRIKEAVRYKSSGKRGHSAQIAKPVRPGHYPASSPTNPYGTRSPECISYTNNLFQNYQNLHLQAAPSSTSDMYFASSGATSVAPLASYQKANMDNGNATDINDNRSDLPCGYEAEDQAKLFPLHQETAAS", "experiment": "dual color TIRF-M in vitro motility reconstitution"}}, "data": [{"substance": "adenomatous polyposis coli (APC), full-length, Q61315 1-2845", "values": [{"measurement": "dwell time, long diffusion events", "setting": "[1]", "value": 26.3, "unit": "s"}, {"measurement": "dwell time with EB1 (fast and slow components)", "setting": "[2]", "value": "> 60", "unit": "s"}, {"measurement": "percent of processive KIF5AA-647 that transports APC–TMR", "setting": "[3]", "value": 25, "unit": "%"}]}]}
